Target: SARS-CoV-2 Spike RBD, B.1.1.529/Omicron (SARS-CoV-2 Omicron B.1.1.529) (UniProt P0DTC2)

Substance “Ribosomally constructed Wuhan-NS (VHH72 V104UAG construct translated with NBDxK-tRNACUA)” has a normalized tube fluorescence of 0.09.

Reference: patent publication US20260139001A1
